Results as given in article PMC6354225, “Synthesis and Preclinical Characterization of the PSMA-Targeted Hybrid Tracer PSMA-I&F for Nuclear and Fluorescence Imaging of Prostate Cancer” (Journal of Nuclear Medicine, 2019).

Legend:
[1] = set-up: method as in PMID 28721307; details: cited from earlier work
[2] = target: human serum albumin (HSA) (Homo sapiens, UniProt P02768); assay: HSA binding by gradient high-performance liquid chromatography method; assay type: in vitro ADME; details: plasma
Method: The lipophilicity of ^68Ga- and ^177Lu-PSMA-I&F was determined via a modified shake-flask method as previously described ([38]). Plasma protein binding of both tracers was determined using 2 alternative methods, that is, incubation in fresh human plasma and subsequent ultrafiltration ([20]) and a previously established gradient high-performance liquid chromatography method for the quantification of human serum albumin (HSA) binding ([41],[42]).

[3] = system: PSMA-positive LNCaP cells; assay: Fluorescence microscopy of ligand internalization, PSMA-positive cells; assay type: cell-based; details: 25 nM, 60 min, 37°C
Method: Competitive binding experiments (IC50) were performed in analogy to a previously published protocol ([38]) using LNCaP cells and (^125I-BA)KuE as a standard radioligand. Internalization kinetics of ^68Ga-PSMA-I&F and ^177Lu-PSMA-I&F (2 nM) were investigated in dual-tracer internalization assays using PSMA-expressing LNCaP cells and (^125I-BA)KuE (0.1 nM) as an internal reference. To differentiate between membrane-bound and internalized activity, an acid wash (50 mM NaOAc in saline, pH 4.5) was performed prior to lysis of the cells (1N NaOH) and quantification of internalized activity (lysate) using a γ-counter. […] For fluorescence microscopy, PSMA-positive LNCaP and PSMA-negative PC3 cells (seeded on glass cover slips) were incubated with the respective PSMA-I&F analog (100 or 25 nM) in the absence (total binding/internalization) or presence (nonspecific binding/internalization) of 10 μM 2-PMPA at 37 °C for 5 or 60 min. […] Ligand internalization was visualized using a Keyence BZ-9000 fluorescence microscope equipped with Cy5 (620/60 nm excitation, 700/75 nm emission), DAPI-BP (370/50 nm excitation, 447/60 nm emission), and GFP-BP (472.5/30 nm excitation, 520/35 nm emission) filters.

LNCaP xenografts = assay: Intraoperative / ex vivo fluorescence imaging of LNCaP xenografts; assay type: in vivo, CB17 SCID mice; details: 2 nmol, 1 h after injection, Dino-Lite microscope and Firefly laparoscope
Method: Fluorescence imaging (intraoperative/ex vivo) of LNCaP xenografts in CB17 SCID mice (1 h after injection) was performed using 2 different instrumental setups: a handheld digital microscope for Cy5 (Dino-Lite Edge AM4115T-DFRW; AnMo Electronics Corp.) and DinoCapture 2.0 software (AnMo Electronics Corp.); and a 0°Firefly laparoscope that is compatible with the surgical robotic da Vinci Si system (Intuitive Surgical Inc.), using a fluid light cable for target illumination (495 FR; KARL STORZ Endoskope GmbH&Co.KG) and a bandpass filter (Edmund Optics Inc.) to isolate the Cy5 emission. Images were captured from the unprocessed Firefly video feed. For instrumental details see supplemental data.

[4] = set-up: method as in earlier work; details: cited from earlier work
LNCaP tumors = details: in vivo; cited from earlier work
[5] = system: tumor xenograft (PC-3 PIP); details: in vivo; cited from earlier work

Chain of human serum albumin (HSA) (P02768 25-609): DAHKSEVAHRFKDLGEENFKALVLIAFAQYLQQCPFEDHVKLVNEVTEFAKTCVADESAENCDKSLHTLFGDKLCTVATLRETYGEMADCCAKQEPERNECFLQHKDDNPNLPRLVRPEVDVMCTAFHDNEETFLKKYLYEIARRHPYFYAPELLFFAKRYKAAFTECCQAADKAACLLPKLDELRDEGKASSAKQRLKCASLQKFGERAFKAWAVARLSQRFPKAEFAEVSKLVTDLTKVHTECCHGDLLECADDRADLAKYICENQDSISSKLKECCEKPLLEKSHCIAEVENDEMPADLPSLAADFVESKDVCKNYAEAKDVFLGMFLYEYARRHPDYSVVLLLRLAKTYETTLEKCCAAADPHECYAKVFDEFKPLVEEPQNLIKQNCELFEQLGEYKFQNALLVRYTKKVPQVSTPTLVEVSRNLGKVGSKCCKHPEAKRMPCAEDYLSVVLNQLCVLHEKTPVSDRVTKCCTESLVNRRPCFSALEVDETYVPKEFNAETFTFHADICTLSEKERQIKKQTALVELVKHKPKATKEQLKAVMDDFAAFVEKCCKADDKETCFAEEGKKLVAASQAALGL

Molecule: CC1(C)C(/C=C/C=C/C=C/C=C2\N(CCCCS(=O)(=O)O)c3ccc4ccccc4c3C2(C)C)=[N+](CCCCS(=O)(=O)[O-])c2ccc3ccccc3c21 [ICG, indocyanine green]
- brightness (quantum yield) [1]: 0.3%

Molecule: C[N+]1=C(/C=C/C=C/C=C2/N(CCCCCC(=O)NCCCC[C@@H](NC(=O)CCC(C(=O)O)N3CCN(CC(=O)O)CCN(CC(=O)O)CCN(CC(=O)O)CC3)C(=O)N[C@H](Cc3ccc(O)c(I)c3)C(=O)N[C@H](Cc3ccc(O)c(I)c3)C(=O)N[C@H](CCCCNC(=O)CCCCCCC(=O)NCCCC[C@H](NC(=O)N[C@@H](CCC(=O)O)C(=O)O)C(=O)O)C(=O)O)c3ccc(S(=O)(=O)O)cc3C2(C)C)C(C)(C)c2cc(S(=O)(=O)[O-])ccc21 (stereo partly drawn) [PSMA-I&F, DOTAGA-D-Lys(Nε-Sulfo-Cy5)-D-(3-iodo)Tyr-D-(3-iodo)Tyr-D-Lys(Nε-Sub-KuE)]
- fraction unbound [2]: 0.017
- Comparative ligand internalization by fluorescence microscopy [3]: highly efficient and identical ligand internalization
- Intraoperative and ex vivo fluorescence detection of tumor xenograft (LNCaP xenografts): sensitive in vivo detection of the PSMA-I&F–positive tumor xenograft with good contrast to the surrounding tissue

Molecule: CN1/C(=C/C=C/C=C/C2=[N+](CCCCCC(=O)O)c3ccc(S(=O)(=O)[O-])cc3C2(C)C)C(C)(C)c2cc(S(=O)(=O)O)ccc21 [Sulfo-Cy5]
- brightness [4]: 51 × 10^3 M^−1⋅cm^−1

Molecule: IRDye800CW-^68Ga-HBED-CC-KuE
- tumor-to-blood ratio (LNCaP tumors): 4.5
- tumor-to-intestines ratio (LNCaP tumors): 5.7
- tumor-to-liver ratio (LNCaP tumors): 4.9
- tumor-to-muscle ratio (LNCaP tumors): 4.8

Molecule: ^111In-DOTA-Lys(Nε-IRDye800CW)-Sub-KuE
- Increase of tracer uptake in the excretion organs and the tumor xenograft (PC-3 PIP) compared with parent compound [5]: 2-4 factor
- tumor-to-blood ratio [5]: 1.4
- tumor-to-intestines ratio [5]: 7.7
- tumor-to-liver ratio [5]: 5.8
- tumor-to-muscle ratio [5]: 11.6
